Holding throughout (experiment): fluorescence polarisation; 37 °C, after the 25 °C reading ramped over 7 min to 37 °C and 2 min incubation; unlabeled Rb^P against 1.5 nM TMR-E2F1^TD or 7.5 nM TMR-E7^LxCxE; 25 mM Tris pH 8.0, 200 mM NaCl, 1 mM DTT, 0.1% Tween-20; apparent Kd
Holding throughout (conditions): both partners purified

The target in one assay is T1, Rb^P S463L (human, UniProt P06400 380-788, S463L).
T1 construct: also called variant 10
T1 sequence (looked up): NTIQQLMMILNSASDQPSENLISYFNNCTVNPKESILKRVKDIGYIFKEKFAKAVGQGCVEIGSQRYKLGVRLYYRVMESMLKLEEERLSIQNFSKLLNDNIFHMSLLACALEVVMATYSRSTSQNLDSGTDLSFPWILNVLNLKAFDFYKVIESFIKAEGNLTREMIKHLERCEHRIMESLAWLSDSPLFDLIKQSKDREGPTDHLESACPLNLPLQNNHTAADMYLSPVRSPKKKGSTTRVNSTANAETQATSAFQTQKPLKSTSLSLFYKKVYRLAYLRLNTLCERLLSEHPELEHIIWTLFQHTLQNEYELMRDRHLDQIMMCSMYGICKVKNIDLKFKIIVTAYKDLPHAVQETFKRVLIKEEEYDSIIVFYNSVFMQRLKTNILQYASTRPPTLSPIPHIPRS

Another assay has as its target T2, Rb^P D584Y (human, UniProt P06400 380-788, D584Y).
T2 construct: also called variant 32
T2 sequence (looked up): T1 sequence (looked up) with L84S, D205Y

In the next assay the target is T3, Rb^P R668H (human, UniProt P06400 380-788, R668H).
T3 construct: also called variant 52
T3 sequence (looked up): T1 sequence (looked up) with L84S, R289H

The next assay deals with T4, Rb^P S671F (human, UniProt P06400 380-788, S671F).
T4 construct: also called variant 53
T4 sequence (looked up): T1 sequence (looked up) with L84S, S292F

The target of the next assay is T5, Rb^P S751C (human, UniProt P06400 380-788, S751C).
T5 construct: also called variant 71
T5 sequence (looked up): T1 sequence (looked up) with L84S, S372C

Where a chain is given by its changes, count along the chain named. Names and notes keep the numbering of the source. No end group written: not given here. TMR = tetramethyl rhodamine dye

B1: TMR-E2F1^TD, peptide of the E2F1 transactivation domain (peptide)
peptide: {TMR}-GEGIRDLFDCDFGDLTPLD
notes: also called E2F^TD; source: synthetic peptide, bought: GenScript
On to B1, for which the Kd with Rb^P S463L worked out at 41 nM; in the assay with Rb^P D584Y, 51 nM; with Rb^P R668H, 22 nM; in the assay with Rb^P S671F, 46 nM; in the assay with Rb^P S751C it was 137 nM.

B2: TMR-E7^LxCxE, LxCxE peptide of the E7 oncoprotein from HPV (peptide)
peptide: DLYCYEQLN
modifications: also: TMR label, position not given here
notes: source: synthetic peptide, bought: GenScript
For the molecule B2, the Kd is 17 nM with Rb^P S463L; 20 nM with Rb^P D584Y; 28 nM with Rb^P R668H; 19 nM with Rb^P S671F; 98 nM in the assay with Rb^P S751C.

Source of the values: paper PMC11931385, “Structural and functional analysis of cancer-associated missense variants in the retinoblastoma protein pocket domain” (The Journal of Biological Chemistry, 2025).
